This note sets out measurements from publication PMC9482650, “Quantitative fragmentomics allow affinity mapping of interactomes” (Nature Communications, 2022).

Some targets named below: MAGI1_2, Q96QZ7; SNX27, Q96L92; PICK1, Q9NRD5; FRMPD2_2, Q68DX3; GRID2IP_2, A4D2P6; LAP2, Q96RT1; LNX1_2, Q8TBB1; Inadl_6, Q8NI35; FRMPD2_3, Q68DX3; GRASP, Q7Z6J2.
Assay in all cases: holdup assay
Common to all, as to design: key: below the threshold = too weak to quantify, mostly under pKd 3.1 to 4
Conditions in all cases: plain residues with an end cap or a label only (N-terminal biotin on a linker: ado-ado)

Another assay concerns the target T1, DLG3_2, Q92796.
T1 sequence (Q92796 221-321, limits assumed, looked up): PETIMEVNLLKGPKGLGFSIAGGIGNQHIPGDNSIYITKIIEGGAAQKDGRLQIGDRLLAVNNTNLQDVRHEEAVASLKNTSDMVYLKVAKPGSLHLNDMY

For the next assay, the target named is T2, DVL3, Q92997.
T2 sequence (Q92997 244-331, limits assumed, looked up): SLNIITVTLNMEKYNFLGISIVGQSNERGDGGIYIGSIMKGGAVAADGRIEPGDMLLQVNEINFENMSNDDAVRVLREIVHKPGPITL

In another assay the target is T3, SNTB1, Q13884.
T3 sequence (Q13884 107-205, limits assumed, looked up): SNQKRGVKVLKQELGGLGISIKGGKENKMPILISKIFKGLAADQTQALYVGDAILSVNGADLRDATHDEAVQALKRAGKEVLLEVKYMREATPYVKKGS

The target in the next assay is T4, MPDZ_10, O75970.
T4 sequence (O75970 1624-1722, limits assumed, looked up): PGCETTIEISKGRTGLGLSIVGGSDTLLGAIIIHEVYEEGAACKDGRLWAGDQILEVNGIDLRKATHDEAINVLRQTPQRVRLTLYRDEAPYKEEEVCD

Another assay concerns the target T5, GRIP1_4, Q9Y3R0.
T5 sequence (Q9Y3R0 467-571, limits assumed, looked up): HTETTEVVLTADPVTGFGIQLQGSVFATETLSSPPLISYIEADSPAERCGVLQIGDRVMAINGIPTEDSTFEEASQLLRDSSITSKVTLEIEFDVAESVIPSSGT

In another assay the target is T6, LIN7B, Q9HAP6.
T6 sequence (Q9HAP6 88-185, limits assumed, looked up): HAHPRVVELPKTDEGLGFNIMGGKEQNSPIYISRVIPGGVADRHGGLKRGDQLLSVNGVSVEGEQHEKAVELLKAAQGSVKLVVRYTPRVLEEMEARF

Another assay concerns the target T7, TIAM2, Q8IVF5.
T7 sequence (Q8IVF5 885-986, limits assumed, looked up): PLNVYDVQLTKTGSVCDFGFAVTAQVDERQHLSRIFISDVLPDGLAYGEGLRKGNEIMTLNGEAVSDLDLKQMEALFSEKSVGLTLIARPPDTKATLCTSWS

The target of another assay is T8, TX1BP3, O14907.
T8 sequence (O14907 10-122, limits assumed, looked up): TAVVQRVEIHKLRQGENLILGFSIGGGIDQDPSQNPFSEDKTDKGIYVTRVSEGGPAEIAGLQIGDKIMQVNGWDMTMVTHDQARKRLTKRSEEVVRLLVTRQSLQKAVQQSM

For a further assay, the target named is T9, PDZD2_2, O15018.
T9 sequence (O15018 329-429, limits assumed, looked up): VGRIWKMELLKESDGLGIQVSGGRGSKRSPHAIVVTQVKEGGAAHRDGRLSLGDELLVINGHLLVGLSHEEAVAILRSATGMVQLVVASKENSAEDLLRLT

The next assay addresses T10, MPDZ_5, O75970.
T10 sequence (O75970 695-796, limits assumed, looked up): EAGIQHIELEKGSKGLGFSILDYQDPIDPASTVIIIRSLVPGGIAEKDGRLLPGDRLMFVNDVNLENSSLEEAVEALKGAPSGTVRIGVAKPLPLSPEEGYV

The target in a further assay is T11, ARHGEF11, O15085.
T11 sequence (O15085 42-136, limits assumed, looked up): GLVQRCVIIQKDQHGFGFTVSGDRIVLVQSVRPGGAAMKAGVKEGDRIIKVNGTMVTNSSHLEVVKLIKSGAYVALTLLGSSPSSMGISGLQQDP

The target of another assay is T12, LIN7C, Q9NUP9.
T12 sequence (Q9NUP9 88-185, limits assumed, looked up): T6 sequence (Q9HAP6 88-185, limits assumed, looked up) with A2S, D13E, V35I, V40I, Q65H, S79K, R89K, A96S

Another assay concerns the target T13, APBA1_1, Q02410.
T13 sequence (Q02410 651-752, limits assumed, looked up): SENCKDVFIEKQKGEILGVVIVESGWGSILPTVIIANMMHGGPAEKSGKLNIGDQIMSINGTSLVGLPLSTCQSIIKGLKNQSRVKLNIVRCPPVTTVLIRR

Substitutions are numbered along the chain they refer to.

LNX1_2, Q8TBB1, sequence (Q8TBB1 371-470): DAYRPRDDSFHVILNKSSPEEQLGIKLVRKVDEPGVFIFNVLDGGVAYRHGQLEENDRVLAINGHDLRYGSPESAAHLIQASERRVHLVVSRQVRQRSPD
FRMPD2_3, Q68DX3, sequence (Q68DX3 1073-1166): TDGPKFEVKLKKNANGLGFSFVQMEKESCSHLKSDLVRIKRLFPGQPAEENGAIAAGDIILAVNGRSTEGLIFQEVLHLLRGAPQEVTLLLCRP
Inadl_6, Q8NI35, sequence (Q8NI35 1058-1167): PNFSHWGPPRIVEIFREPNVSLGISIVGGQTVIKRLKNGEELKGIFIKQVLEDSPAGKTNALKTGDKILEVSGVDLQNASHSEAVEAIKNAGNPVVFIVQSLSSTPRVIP
GRID2IP_2, A4D2P6, sequence (A4D2P6 272-370): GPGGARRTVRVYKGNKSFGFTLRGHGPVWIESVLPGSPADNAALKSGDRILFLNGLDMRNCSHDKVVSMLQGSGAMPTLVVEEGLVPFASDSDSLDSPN
PICK1, Q9NRD5, sequence (Q9NRD5 17-115): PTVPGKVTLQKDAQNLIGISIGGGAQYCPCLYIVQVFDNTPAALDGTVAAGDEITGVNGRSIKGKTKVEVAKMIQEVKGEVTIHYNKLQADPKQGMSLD
FRMPD2_2, Q68DX3, sequence (Q68DX3 944-1038): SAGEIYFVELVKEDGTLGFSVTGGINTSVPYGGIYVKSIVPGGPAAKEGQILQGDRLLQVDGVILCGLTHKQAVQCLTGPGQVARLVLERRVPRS
MAGI1_2, Q96QZ7, sequence (Q96QZ7 456-580): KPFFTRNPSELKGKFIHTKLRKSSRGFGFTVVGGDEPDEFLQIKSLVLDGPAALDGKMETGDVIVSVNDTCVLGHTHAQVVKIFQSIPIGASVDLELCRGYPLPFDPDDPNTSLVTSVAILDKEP
GRASP, Q7Z6J2, sequence (Q7Z6J2 96-193): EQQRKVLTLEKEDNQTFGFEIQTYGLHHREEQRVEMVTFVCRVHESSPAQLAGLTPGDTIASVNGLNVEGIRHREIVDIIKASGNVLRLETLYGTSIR
LAP2, Q96RT1, sequence (Q96RT1 other isoform, or with tags, fused parts or gaps): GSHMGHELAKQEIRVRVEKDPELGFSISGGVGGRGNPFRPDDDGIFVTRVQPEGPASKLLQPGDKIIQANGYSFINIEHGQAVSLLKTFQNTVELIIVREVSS

What is called pKd is the Kd on a negative log10 scale, so that one unit is a factor of ten. With SSSVNVSSNL [CXCR1, P25024], the pKd result in the assay with DLG3_2, Q92796 was “below the threshold”; with MAGI1_2, Q96QZ7, “below the threshold”; in the assay with DVL3, Q92997, “below the threshold”; with SNTB1, Q13884 it was “below the threshold”; with SNX27, Q96L92 it was 3.68; in the assay with MPDZ_10, O75970, “below the threshold”. Moreover, the pKd entry was “below the threshold” in the assay with GRIP1_4, Q9Y3R0; 4.12 with PICK1, Q9NRD5; 3.58 in the assay with LIN7B, Q9HAP6; “below the threshold” with FRMPD2_2, Q68DX3; 3.84 with GRID2IP_2, A4D2P6; “below the threshold” with TIAM2, Q8IVF5. Also, the pKd in the assay with TX1BP3, O14907 was 3.84; with LAP2, Q96RT1, “below the threshold”; with PDZD2_2, O15018, 3.69; in the assay with LNX1_2, Q8TBB1, “below the threshold”; with Inadl_6, Q8NI35, “below the threshold”; with FRMPD2_3, Q68DX3, “below the threshold”. Also, the pKd in the assay with GRASP, Q7Z6J2 was 3.63; with MPDZ_5, O75970 it was “below the threshold”; in the assay with ARHGEF11, O15085, 3.75; in the assay with LIN7C, Q9NUP9 it was “below the threshold”; with APBA1_1, Q02410, “below the threshold”.
On to HLSTRQGTCV [ATRNL1, Q5VV63], for which the pKd is 4.22 with DLG3_2, Q92796; 4.65 in the assay with MAGI1_2, Q96QZ7; “below the threshold” with DVL3, Q92997; 3.99 with SNTB1, Q13884; 4.05 in the assay with SNX27, Q96L92; 3.75 in the assay with MPDZ_10, O75970. Besides, the pKd result is “below the threshold” in the assay with GRIP1_4, Q9Y3R0; “below the threshold” with PICK1, Q9NRD5; “below the threshold” in the assay with LIN7B, Q9HAP6; “below the threshold” with FRMPD2_2, Q68DX3; 4.05 with GRID2IP_2, A4D2P6; “below the threshold” with TIAM2, Q8IVF5. Moreover, the pKd result in the assay with TX1BP3, O14907 was “below the threshold”; with LAP2, Q96RT1, 3.94; with PDZD2_2, O15018 it was 4.99; with LNX1_2, Q8TBB1 it was 3.71; with Inadl_6, Q8NI35, “below the threshold”; with FRMPD2_3, Q68DX3 it was “below the threshold”. Moreover, the pKd is 4.28 in the assay with GRASP, Q7Z6J2; 3.66 with MPDZ_5, O75970; 4.02 with ARHGEF11, O15085; “below the threshold” with LIN7C, Q9NUP9; “below the threshold” with APBA1_1, Q02410.
For LLQEEWETVM [PTH1R, Q03431], the pKd result is “below the threshold” in the assay with DLG3_2, Q92796; “below the threshold” with MAGI1_2, Q96QZ7; “below the threshold” with DVL3, Q92997; 4.24 in the assay with SNTB1, Q13884; 5.65 with SNX27, Q96L92; “below the threshold” with MPDZ_10, O75970. For the same molecule, the pKd entry in the assay with GRIP1_4, Q9Y3R0 was “below the threshold”; in the assay with PICK1, Q9NRD5, 4.22; with LIN7B, Q9HAP6, “below the threshold”; with FRMPD2_2, Q68DX3 it was “below the threshold”; in the assay with GRID2IP_2, A4D2P6, 4.11; in the assay with TIAM2, Q8IVF5 it was “below the threshold”. The pKd result was “below the threshold” in the assay with TX1BP3, O14907; “below the threshold” in the assay with LAP2, Q96RT1; “below the threshold” with PDZD2_2, O15018; “below the threshold” with LNX1_2, Q8TBB1; 4.12 in the assay with Inadl_6, Q8NI35; “below the threshold” with FRMPD2_3, Q68DX3. The negative-log Kd (pKd) with GRASP, Q7Z6J2 is 3.72; in the assay with MPDZ_5, O75970 it was “below the threshold”; with ARHGEF11, O15085 it was 3.81; with LIN7C, Q9NUP9, “below the threshold”; with APBA1_1, Q02410, “below the threshold”.
For the molecule HYPASPDSWV [CTNND2, Q9UQB3], the pKd is 4.3 with DLG3_2, Q92796; “below the threshold” in the assay with MAGI1_2, Q96QZ7; 4.04 with DVL3, Q92997; 4.23 with SNTB1, Q13884; 5.06 in the assay with SNX27, Q96L92; “below the threshold” with MPDZ_10, O75970. The pKd result with GRIP1_4, Q9Y3R0 is “below the threshold”; with PICK1, Q9NRD5 it was 4.17; in the assay with LIN7B, Q9HAP6 it was “below the threshold”; in the assay with FRMPD2_2, Q68DX3 it was 4.54; in the assay with GRID2IP_2, A4D2P6, “below the threshold”; in the assay with TIAM2, Q8IVF5, “below the threshold”. Further, the pKd with TX1BP3, O14907 is 5.15; with LAP2, Q96RT1 it was 5.58; with PDZD2_2, O15018, 5.99; with LNX1_2, Q8TBB1, 3.8; with Inadl_6, Q8NI35 it was 4.37; in the assay with FRMPD2_3, Q68DX3, “below the threshold”. The pKd in the assay with GRASP, Q7Z6J2 is 3.76; in the assay with MPDZ_5, O75970 it was “below the threshold”; in the assay with ARHGEF11, O15085, 3.68; with LIN7C, Q9NUP9, “below the threshold”; in the assay with APBA1_1, Q02410 it was “below the threshold”.
With NNMAFETTHF [SLC5A12, Q1EHB4], the pKd with DLG3_2, Q92796 is 4.08; in the assay with MAGI1_2, Q96QZ7, “below the threshold”; with DVL3, Q92997 it was “below the threshold”; in the assay with SNTB1, Q13884, “below the threshold”; with SNX27, Q96L92 it was 5.62; in the assay with MPDZ_10, O75970, “below the threshold”. Moreover, the pKd result in the assay with GRIP1_4, Q9Y3R0 was “below the threshold”; in the assay with PICK1, Q9NRD5, “below the threshold”; in the assay with LIN7B, Q9HAP6, 3.62; with FRMPD2_2, Q68DX3 it was “below the threshold”; with GRID2IP_2, A4D2P6, 3.49; in the assay with TIAM2, Q8IVF5, “below the threshold”. Moreover, the pKd was 3.93 with TX1BP3, O14907; “below the threshold” with LAP2, Q96RT1; “below the threshold” in the assay with PDZD2_2, O15018; “below the threshold” with LNX1_2, Q8TBB1; “below the threshold” in the assay with Inadl_6, Q8NI35; “below the threshold” in the assay with FRMPD2_3, Q68DX3. The pKd with GRASP, Q7Z6J2 is 4.8; with MPDZ_5, O75970 it was “below the threshold”; with ARHGEF11, O15085, 3.63; with LIN7C, Q9NUP9, “below the threshold”; with APBA1_1, Q02410, “below the threshold”.
